Experiment [1] has as its target T1, GroEL (E. coli, UniProt P0A6F5 1-548). Description: SEC.
In experiment [2] the target is T1, GroEL. The experiment can be described thus: atomic force microscopy.
Experiment [3] concerns the target T1, GroEL.
Experiment [4] addresses T1, GroEL. Description: fluorescence polarisation + other fluorescence titration.
Experiment [5] deals with T1, GroEL. The experiment can be described thus: other fluorescence titration.

Like-named read-outs stand apart in the source and are kept apart here.

T1 sequence (P0A6F5 whole entry): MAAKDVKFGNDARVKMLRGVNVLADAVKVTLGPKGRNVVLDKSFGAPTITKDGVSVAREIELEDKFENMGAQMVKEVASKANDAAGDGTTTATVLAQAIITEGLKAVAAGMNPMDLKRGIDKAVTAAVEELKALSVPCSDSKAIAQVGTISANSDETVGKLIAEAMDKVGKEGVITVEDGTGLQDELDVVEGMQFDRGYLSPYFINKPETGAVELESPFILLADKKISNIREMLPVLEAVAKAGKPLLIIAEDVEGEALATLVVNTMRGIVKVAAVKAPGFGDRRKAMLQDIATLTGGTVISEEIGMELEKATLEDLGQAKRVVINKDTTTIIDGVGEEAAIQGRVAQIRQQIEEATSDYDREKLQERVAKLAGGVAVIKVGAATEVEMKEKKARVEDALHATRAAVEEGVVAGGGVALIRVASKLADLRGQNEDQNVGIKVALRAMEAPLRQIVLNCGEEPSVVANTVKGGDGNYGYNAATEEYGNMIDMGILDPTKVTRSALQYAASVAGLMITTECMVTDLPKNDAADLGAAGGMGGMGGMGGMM

For the molecule “CnoX (from UniProt P77395 1-284) (natural protein)”, the stoichiometry N (GroEL:CnoX molar ratio) with GroEL [1] came to 14. In the experiment with GroEL [2], this molecule registered a specific binding force of 175 pN. On to “fluorescein-labeled CnoX (from UniProt P77395 1-284) (natural protein)”, for which the figures for the Kd in the experiment with GroEL [3] and with GroEL [4] were 350 nM and 310 nM, respectively.

B1: GroES (natural protein)
chain: MNIRPLHDRVIVKRKEVETKSAGGIVLTGSAAAKSTRGEVLAVGNGRILENGEVKPLDVKVGDIVIFNDGYGVKSEKIDNEEVLIMSESDILAIVEA
Molecule B1 had a Ki with GroEL [5] of 47 nM.
